Measured values taken from paper PMC5945783, “Relationship Between Homodimeric Glucocorticoid Receptor and Transcriptional Regulation Assessed via an In Vitro Fluorescence Correlation Spectroscopy-Microwell System” (Scientific Reports, 2018).
Residue numbers refer to the chain shown, from its start. In names and notes the source's numbering stands.

Experiments:
[1] = biological target: the molecule itself; assay: fluorescence correlation spectroscopy (FCS), particle brightness (counts per particle) analysis; FCS-microwell system: single transfected U2OS cell lysed in a 113 pL PDMS microwell; absence of Dex; lysis buffer with 0.1% SDS and Benzonase; bimolecular reaction model fitted in the 0-50 nM range; dimer to monomers
[2] = biological target: the molecule itself; assay: fluorescence correlation spectroscopy (FCS), particle brightness (counts per particle) analysis; FCS-microwell system: single transfected U2OS cell, 500 nM Dex at 37 °C for 20 min, then lysed in a 113 pL PDMS microwell; lysis buffer with 0.1% SDS and Benzonase; bimolecular reaction model fitted in the 0-50 nM range; dimer to monomers

B1: EGFP-fused human glucocorticoid receptor α C421G mutant (natural protein, UniProt P04150 1-777, looked up)
chain: MDSKESLTPGREENPSSVLAQERGDVMDFYKTLRGGATVKVSASSPSLAVASQSDSKQRRLLVDFPKGSVSNAQQPDLSKAVSLSMGLYMGETETKVMGNDLGFPQQGQISLSSGETDLKLLEESIANLNRSTSVPENPKSSASTAVSAAPTEKEFPKTHSDVSSEQQHLKGQTGTNGGNVKLYTTDQSTFDILQDLEFSSGSPGKETNESPWRSDLLIDENCLLSPLAGEDDSFLLEGNSNEDCKPLILPDTKPKIKDNGDLVLSSPSNVTLPQVKTEKEDFIELCTPGVIKQEKLGTVYCQASFPGANIIGNKMSAISVHGVSTSGGQMYHYDMNTASLSQQQDQKPIFNVIPPIPVGSENWNRCQGSGDDNLTSLGTLNFPGRTVFSNGYSSPSMRPDVSSPPSSSSTATTGPPPKLGLVCSDEASGCHYGVLTCGSCKVFFKRAVEGQHNYLCAGRNDCIIDKIRRKNCPACRYRKCLQAGMNLEARKTKKKIKGIQQATTGVSQETSENPGNKTIVPATLPQLTPTLVSLLEVIEPEVLYAGYDSSVPDSTWRIMTTLNMLGGRQVIAAVKWAKAIPGFRNLHLDDQMTLLQYSWMFLMAFALGWRSYRQSSANLLCFAPDLIINEQRMTLPCMYDQCKHMLYVSSELHRLQVSYEEYLCMKTLLLLSSVPKDGLKSQELFDEIRMTYIKELGKAIVKREGNSSQNWQRFYQLTKLLDSMHEVVENLLNYCFQTFLDKTMSIEFPEMLAEIITNQIPKYSNGNIKKLLFHQK
notes: glucocorticoid receptor α, human, with C421G; also called EGFP-GR/C421G; GR/C421G; source: U2OS, transfected (ViaFect), in single-cell lysate
B1 gave a Kd [1] of 400 nM and a Kd [2] of 220 nM.

B2: EGFP-fused human glucocorticoid receptor α A458T mutant (natural protein, UniProt P04150 1-777, looked up)
chain: B1 chain with G421C, A458T
notes: glucocorticoid receptor α, human, with A458T; also called EGFP-GR/A458T; GR/A458T; source: U2OS, transfected (ViaFect), in single-cell lysate
For B2, the Kd [1] was 390 nM and the Kd [2] was 370 nM.
